Measurements taken from PMC3923860.

Tests used:
[1] = tested on: oxidized HMGB1 (Cys23-Cys45 disulfide) (rat (sequence identical to human)); test: ligase-mediated circularization; conditions: bending, EMSA: 50 mM NaCl, 25 mM Tris-HCl pH 7.5, 1 mM EDTA, 1 mM DTT, 100 ug/ml acetylated BSA, 3% glycerol, 30 min on ice, gels 0.5x TBE, 4 C
histone H1o (H1) (human) = test: EMSA; conditions: no competitor DNA, EMSA: 50 mM NaCl, 25 mM Tris-HCl pH 7.5, 1 mM EDTA, 1 mM DTT, 100 ug/ml acetylated BSA, 3% glycerol, 30 min on ice
[2] = tested on: reduced HMGB1 (all-thiol) (rat (sequence identical to human)); test: EMSA; conditions: EMSA: 50 mM NaCl, 25 mM Tris-HCl pH 7.5, 1 mM EDTA, 1 mM DTT, 100 ug/ml acetylated BSA, 3% glycerol, 30 min on ice
[3] = tested on: oxidized HMGB1 (Cys23-Cys45 disulfide) (rat (sequence identical to human)); test: EMSA; conditions: EMSA: 50 mM NaCl, 25 mM Tris-HCl pH 7.5, 1 mM EDTA, 1 mM DTT, 100 ug/ml acetylated BSA, 3% glycerol, 30 min on ice
[4] = covalently closed circle, gels 0.5x TBE …

123-bp DNA duplex
binding signal (% of minicircles with reduced HMGB1) [1]: < 20

66-bp DNA minicircle
Kd (histone H1o (H1) (human); [4]): 5 nM | Kd [2, 4]: < 0.1 nM | Kd ([3]; oxidized, covalently closed circle, gels 0.5x TBE …): 0.25 nM

hemicatenated DNA loops (hcDNA)
Kd (histone H1o (H1) (human); gels 0.5x TBE, 4 C): 6 nM | Kd ([2]; gels 0.5x TBE, 4 C): < 0.01 nM | Kd ([3]; gels 0.5x TBE, 4 C): < 0.01 nM | binding signal (fold lower affinity than reduced (up to)) ([3]; oxidized, gels 0.5x TBE, 4 C): 10
